Patent publication US20030235558A1

Biological target: ^125I-labeled multiubiquitin chains
Test: GST fusion on glutathione agarose beads, ^125I-labeled multiubiquitin chains, gamma-counting

| Substance | Multiubiquitin Chain Bound (%) | Multiubiquitin Chain Bound cpm |
| --- | --- | --- |
| GST fused p62 ubiquitin binding region (GST.p62C259) (from UniProt O08623 363-439) | 100% | 5210 cpm |
| GST fused p62 ubiquitin binding region mutant L394/L395 → A/A (from UniProt O08623 363-439) | 17% | 877 cpm |
